Results taken from patent publication US20210079109A1 (Regeneron, published 2021).
Values belong to the binder of their own block, whether it stands above or below them.

What was measured:
[1] = molecular target: T1, recombinant human CD63 extracellular loop 2 expressed with a C-terminal Myc-Myc-hexahistidine (human); assay: SPR Biacore, mAb captured, 37C
T1 construct: also called hCD63 EC loop 2-MMH; human CD63 EC loop 2-MMH
Method: (§1) Equilibrium dissociation constants (KD) for different CD63 (EC2) loop reagents binding to purified anti-CD63 monoclonal antibodies were determined using a real-time surface plasmon resonance based Biacore T200 biosensor or Biacore 2000 biosensor. All binding studies were performed in 10 mM HEPES, 150 mM NaCl, 3 mM EDTA, and 0.05% v/v Surfactant Tween-20, pH 7.4 (HBS-ET) running buffer at 25° C. and 37° C. The Biacore CMS sensor chip surface was first derivatized by amine coupling with either a rabbit anti-mouse Fc specific polyclonal antibody (GE Healthcare, Cat #BR100838) or an anti-human Fab kit (GE Healthcare, Cat #28958325) to capture anti-CD63 monoclonal antibodies. […] The association rate (Kₐ) and dissociation rate (kd) were determined by fitting the real-time binding sensorgrams to a 1:1 binding model with mass transport limitation using Scrubber 2.0c curve-fitting software. Binding dissociation equilibrium constant (KD) and dissociative half-life (t½) were calculated from the kinetic rates as: […]
(§2) Binding kinetics parameters for human CD63 EC loop 2 protein binding to different anti-CD63 monoclonal antibodies of the invention at 25° C. and 37° C. are shown in Tables 6 through 9.

[2] = molecular target: T2, recombinant human CD63 extracellular loop 2 expressed with a C-terminal human Fc tag (human); assay: SPR Biacore, mAb captured, 37C
T2 construct: also called hCD63 EC loop 2-hFc; human CD63 EC loop 2-Fc
Method: as §1, §2

[3] = molecular target: T1, recombinant human CD63 extracellular …; assay: SPR Biacore, mAb captured, 25C
Method: as §1, §2

[4] = molecular target: T2, recombinant human CD63 extracellular …; assay: SPR Biacore, mAb captured, 25C
Method: as §1, §2

human CD63 [5] = molecular target: T3, human CD63 (human, UniProt P08962 2-238); assay: ECL, LNCAP cells
T3 construct: stably transfected in NIH3T3/hCD63; The cell line is named under assay; also called hCD63
T3 sequence: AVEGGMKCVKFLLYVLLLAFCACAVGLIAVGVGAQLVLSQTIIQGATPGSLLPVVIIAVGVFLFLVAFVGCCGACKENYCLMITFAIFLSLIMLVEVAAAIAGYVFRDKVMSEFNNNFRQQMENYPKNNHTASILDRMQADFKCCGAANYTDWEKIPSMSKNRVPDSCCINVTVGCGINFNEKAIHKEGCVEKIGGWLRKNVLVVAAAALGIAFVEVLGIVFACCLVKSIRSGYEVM
Method: (§3) LNCAP cells were determined to have a lower human CD63 copy number than U87MG cells. Non-transfected NIH3T3 cells, which have no detectable expression of human CD63 by fluorescence activated cell sorting (FACS), were included as a negative control.
(§4) Briefly, cell lines were rinsed once in PBS buffer without Ca²⁺/Mg²⁺ and incubated for 10 minutes at 37° C. with Enzyme Free Cell Dissociation Solution (Millipore, Cat #S-004-C) to detach the cells. Cells were then washed once with PBS with Ca²⁺/Mg²⁺ and counted with a Cellometer™ Auto T4 cell counter (Nexcelom Bioscience, LLC). Approximately 2.0×10⁴ NIH3T3/hCD63, LNCAP, U87MG or NIH3T3 cells were seeded separately onto 96-well carbon electrode plates […]) and were then incubated for one hour at 37° C. Nonspecific binding sites were blocked with 2% BSA (w/v) in PBS with Ca²⁺/Mg²⁺ for one hour at room temperature (RT). Solutions containing anti-CD63 antibodies or isotype control antibodies at a range of concentrations (1.7 pM to 100 nM) in 0.5% BSA (w/v) in PBS with Ca²⁺/Mg²⁺, as well as control buffer alone, were then added in duplicate to the plate-bound NIH3T3/hCD63, LNCAP, U87MG or NIH3T3 cells and incubated for one hour at RT. Plates were subsequently washed to remove unbound antibodies using an AquaMax2000 plate washer with a cell washing head (MDS Analytical Technologies). […] Plates were washed and then incubated with Read Buffer (MSD, Cat #R92TD-2) according to the manufacturer's instructions. Luminescent signals were measured using a SECTOR Imager (MSD).

human CD63 [6] = molecular target: T3, human CD63; assay: ECL, U87MG cells
Method: as §3, §4

human CD63 [7] = molecular target: T3, human CD63; assay: ECL, NIH3T3/hCD63 cells
Method: as §3, §4

T1 sequence (chain, as listed by the source limits assumed): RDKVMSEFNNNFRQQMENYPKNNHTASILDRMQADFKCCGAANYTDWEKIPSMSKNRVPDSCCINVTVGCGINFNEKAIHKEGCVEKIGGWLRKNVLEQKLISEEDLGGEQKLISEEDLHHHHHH
T2 sequence (chain, as listed by the source limits assumed): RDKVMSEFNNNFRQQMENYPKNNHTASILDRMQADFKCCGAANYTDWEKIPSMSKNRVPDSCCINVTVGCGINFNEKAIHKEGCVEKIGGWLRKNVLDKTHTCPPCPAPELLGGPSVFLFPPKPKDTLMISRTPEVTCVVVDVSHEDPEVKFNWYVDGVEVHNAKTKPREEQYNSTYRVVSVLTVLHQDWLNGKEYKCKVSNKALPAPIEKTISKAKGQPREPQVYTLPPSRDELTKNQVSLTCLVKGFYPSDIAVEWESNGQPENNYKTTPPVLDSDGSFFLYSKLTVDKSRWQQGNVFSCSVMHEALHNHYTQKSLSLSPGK

100 nM Ag Bound (RU) [1]: 31 RU
Kd [1]: 21.5 nM
koff [1]: 0.00671 s⁻¹
kon [1]: 311000 M⁻¹ s⁻¹
t1/2 [1]: 2 min
100 nM Ag Bound (RU) [2]: 107 RU
Kd [2]: 1.01 nM
koff [2]: 0.000562 s⁻¹
kon [2]: 557000 M⁻¹ s⁻¹
t1/2 [2]: 21 min
100 nM Ag Bound (RU) [3]: 48 RU
Kd [3]: 13 nM
koff [3]: 0.00132 s⁻¹
kon [3]: 102000 M⁻¹ s⁻¹
t1/2 [3]: 9 min
100 nM Ag Bound (RU) [4]: 117 RU
Kd [4]: 0.61 nM
koff [4]: 0.00028 s⁻¹
kon [4]: 460000 M⁻¹ s⁻¹
t1/2 [4]: 41 min
EC50 (human CD63 [5]): 0.32 nM
binding ratio at 3.7 nM vs NIH3T3 (human CD63 [5]): 8 fold
EC50 (human CD63 [6]): 0.85 nM
binding ratio at 3.7 nM vs NIH3T3 (human CD63 [6]): 71 fold
EC50 (human CD63 [7]): 0.45 nM
binding ratio at 3.7 nM vs NIH3T3 (human CD63 [7]): 95 fold
B1: H2M13022N (antibody, V domains shown)
VH: QVQLVESGGGLVQPGGSLRLSCAASGFIFGDYYINWIRQAPGKGLQWVSYTSSSGSTTYYEDSVKGRFTMSRDNAKNLVYLQMNSLRAEDTAAYYCVRDLRYNDGLDVWGQGTTVIVSS
VL: DILLTQSPSSLSAFVGDRVTITCRASQNIRTYLNWYQQKPGRAPKLLVYAASTLQSGVPSRFSGSGSGTDFTLTISSLQPEDFASYFCQQSYDNPPITFGQGTRLAIK
notes: also called H2bM13022N

100 nM Ag Bound (RU) [1]: 3 RU
100 nM Ag Bound (RU) [2]: 156 RU
Kd [2]: 7.92 nM
koff [2]: 0.00457 s⁻¹
kon [2]: 577000 M⁻¹ s⁻¹
t1/2 [2]: 3 min
100 nM Ag Bound (RU) [3]: 10 RU
100 nM Ag Bound (RU) [4]: 194 RU
Kd [4]: 2 nM
koff [4]: 0.000728 s⁻¹
kon [4]: 364000 M⁻¹ s⁻¹
t1/2 [4]: 16 min
EC50 (human CD63 [5]): 6.7 nM
binding ratio at 3.7 nM vs NIH3T3 (human CD63 [5]): 8 fold
EC50 (human CD63 [6]): 17 nM
binding ratio at 3.7 nM vs NIH3T3 (human CD63 [6]): 62 fold
EC50 (human CD63 [7]): 2.5 nM
binding ratio at 3.7 nM vs NIH3T3 (human CD63 [7]): 227 fold
B2: H4H11993P2 (antibody, V domains shown)
VH: QVQLVESGGGLVKPGGSLRLSCAASGFTFSDYYMNWIRQAPGKGLEWVSYINGGGYTMYYADSVKGRFTISRDNAKNSLYLQMNSLRAEDTAVYYCARDRRTTVSIDYWGQGTLVTVSS
VL: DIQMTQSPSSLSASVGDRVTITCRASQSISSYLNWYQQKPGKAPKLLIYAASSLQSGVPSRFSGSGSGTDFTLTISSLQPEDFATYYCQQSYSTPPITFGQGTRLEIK

100 nM Ag Bound (RU) [1]: 39 RU
Kd [1]: 5.85 nM
koff [1]: 0.00289 s⁻¹
kon [1]: 495000 M⁻¹ s⁻¹
t1/2 [1]: 4 min
100 nM Ag Bound (RU) [2]: 97 RU
Kd [2]: 0.568 nM
koff [2]: 0.00037 s⁻¹
kon [2]: 651000 M⁻¹ s⁻¹
t1/2 [2]: 31 min
100 nM Ag Bound (RU) [3]: 43 RU
Kd [3]: 3.12 nM
koff [3]: 0.000805 s⁻¹
kon [3]: 258000 M⁻¹ s⁻¹
t1/2 [3]: 14 min
100 nM Ag Bound (RU) [4]: 83 RU
Kd [4]: 0.299 nM
koff [4]: 0.000132 s⁻¹
kon [4]: 441000 M⁻¹ s⁻¹
t1/2 [4]: 87 min
EC50 (human CD63 [5]): 1.1 nM
binding ratio at 3.7 nM vs NIH3T3 (human CD63 [5]): 19 fold
EC50 (human CD63 [6]): 1.3 nM
binding ratio at 3.7 nM vs NIH3T3 (human CD63 [6]): 111 fold
EC50 (human CD63 [7]): 0.81 nM
binding ratio at 3.7 nM vs NIH3T3 (human CD63 [7]): 243 fold
B3: H3M12361N (antibody, V domains shown)
VH: EVQLVESGGGLVQPGRSLRLSCTASGFTFGDHAMHWVRQAPGKGLEGVSSINWNSGIIGYAESVKGRFTISRDNAKNSLYLQMNNLRAEDTGLYYCARDIGVATLGIDYWGQGTLVTVSS
VL: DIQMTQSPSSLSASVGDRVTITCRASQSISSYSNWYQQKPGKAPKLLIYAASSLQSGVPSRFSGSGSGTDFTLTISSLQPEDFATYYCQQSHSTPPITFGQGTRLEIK
